The nanobody polyreactivity screen of Harvey et al. (2022)

Experiment: yeast display, Sf9 membrane polyspecificity reagent, FACS + sequencing; frameworks hold sequencing errors
How it was run: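 Nanobodies from a synthetic yeast display library (Saccharomyces cerevisiae BJ5465), induced 36–48 hours with galactose, were stained 1 hour at 4 °C with 10% biotinylated, detergent-solubilized Sf9 membrane reagent, enriched on streptavidin microbeads, then FACS-sorted. Anti-HA (expression) and streptavidin (reagent binding) fluorescence set low and high (top ~1%) gates. Polyreactivity labels come from the gate of origin. Genes were colony-PCR amplified, MiSeq 2 × 250 sequenced and filtered by CDR length.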

Sequence | polyreactivity (PSR sort gate)
QVQLVESGVGLVQAGGSLRLSCAASGRIFGAYAIGWYRQAPRKERELVAAISGSGGRTYYADSVKGRFTISRDSEKNTVYLQMNRLKPEDTAVYYCNKGYVYGHEYWGQGTQVTVSS | high polyreactivity
QVQLVESGAGIVQAGGSLRLSCAASGSIFRVYAMGWYRQAPWKERELVAAISRTGGSTYYADSVKGRFTISRDNAKNTVYLPMNSLQPEDTAVDYCAARQRYVGYYYWGQGTQVTVSS | high polyreactivity
QVQLVESGGGLVQAGGSLRLSCAASGSIFQAYVMGWYRQAPGTERELVATIDRRGGITYYADSVKGRFTISRDNAKNNVYLQMNSLKPEDTAVYYCATALIVLGPSRYEYWGQGTQVTVSS | high polyreactivity
QVQLVESGGGLVQAGGSLRLSCAASGSIFYSYAMGWYRQAPGKDRELVARITSSTGRTYYADSVKGRFTISRDNAKNTVYLQMNSLKPEDTAVYYCAARSASRSMDYWGQGTQVTVSS | high polyreactivity
QVQLVESGGGLVQAGGSLRLSCAASGITFPGYAMGWYRQAPGKEWELVAAISTSGGSTYYADSVKGRFTISRDNAKNTVYLQMNSLKPEATAVYYCNARLVSYSYEEMDYWGQGTQVTVSS | low polyreactivity
QVQLVESGGGLVQAGGSLRLSWAASGFTFTPYAMGWYRPAPGKEREFVAAISQRGTSTFYADSVKGRFTISRDNAKHTVYLQMNSLKPEDTAVYYCAKPYRQYTSAYYNTYNYWGQGTEVTVSS | high polyreactivity
QVQLVESGGGLVQAGGSLRLSCAASGSIFTDNSMGWYRQAPGKERELVAAIDSVGSTYYADSVKGRFTISRDNAKNTVYLQMNSLKPEDTAVYYCAADLYFPYESYYWGQGTQVTVSS | low polyreactivity
QVQLVESGGGLVQAGGSLRLSCAASGSIFTWYAMGWYRQAPGKEREFVDSITGSGGSTYYADSVKGRFTISRDNAKNTVYLQMNSLKPEDTAVYYCAKGHVYSSYRYRLRSTAFGYWGQGTQVTVSS | high polyreactivity
QVQLVESGGGLLQAGGSLRLSCAASGITFDGNAMGWYRQAPWKERELVAGISGSGGGTYYADSVKGRFTISRDNAKNTVYLQMNSLKPEDTEVYYCAADTSTSHAYDYWGQGTQVTVSS | low polyreactivity
QVQLVESGGGLVQAGGSLRLSGAASGRTFVSYTMGWYRQAPGKERQLVAAISDDGDSTYYADSVKGRFTISRDYAKNTVYLQMNSLKPEDTAVYYCAAGEYQYFWFPFDYWGQGTQVTVSS | low polyreactivity
QVQLVESGGGLVQAGGSLRLSCAASGSTFKAYAMGWYRQAPGKEWELVAAISASGGTTYYADSVKGRFTISRDNAKNTVYLQLKSLKPEDTAVYYCNARHPYTGGRRYPYTRYGYWGQGTQVTVSS | high polyreactivity
QVQLQERGGGLVQAGGSLRMSCAASGSIFVSVTMGWYRQAPGKERELVASIGRGSTTNHADSVKGLFTISRDNAKNIVYLLMNSLKPEDTAVYYCAALESYGKYHGYWGQGTQVTVSS | low polyreactivity
QVQLVESGGGLVQAGGSLRLSCAASGSTFDSYAMGWYRPAPGKERELVAAISSGGSTNYADSVKGRFTISRDNAKNTVYLQMYSLKPEDTAVYYCAAYGGHIWWLYRHYGYDYWGQGTQVTVSS | low polyreactivity
QVQLVESGGGLVQAGGSLRLSCAASGITFRRNAMGWSRQAHGQVRELVAAITRSGGSTYYADSVKGRFTISRDNAKNTVYLQMNSLKPEDTADYYCAADNTNDEDTGYYWGQGTQVTVSS | high polyreactivity
QVQLVESGGGLVQAGGSLRLSCAASGFSFYNYAMGWYRQAPGKERELVAAISWSGGSTHYADSVKGRFTISRDNAKNTVYLQMNSLKPEDTAVYYCAKVGVLGYYTYYYWGQGTQVTVSS | low polyreactivity
QVQLVESGGGLVQAGVILRLSCAASGSTFSLYAMGWYRKPPGKERELVAAISWSDGSTYYADSVKGRFTISRDNAKITVYLQMNSLKAEDTAVSYFANASSFAYYRFGYWGQVTQVTVSS | low polyreactivity
QVQLEESGGRLVQPGGSLRLSCAASGFIFGIYDMGWYRQAPGKERELVAAITYSGSSTYYADSVKGRFTISRDNAKNTVYLQMNSLKPEDTAVYYCNKTAWDWDYWDPEYDYWGQGTQVTVSS | high polyreactivity
QVQLVESGGGLVKAGGSLRLSCAASGSTFERYAMGCYRQAPGKEMELVAAINWSGGGTYYADSVKGRFTISRDNAKNTVYLQMNSLKPVDTAVYYCAADSGTVVFSLWWYEYYYWGQGTQVTVSS | low polyreactivity
QVQLVESGGGLVQAGGSLRLSCAASGRIFNYYAMGWYRQAPGKEMELVAVITYSAGRTYYADSVKGRFTISRDNAKNTVYLQMNSLKPEDTAVYYCNADGWVSVSKHYYYWGQGTQVTVSS | low polyreactivity
QFQLVESGGGLVQAGGSLRISCAATGLIYYVYAMGWYRQAPGKESELVAAIRSGGSTNNADSVKGRFTISRDNAKNTVYLQMNRLKPEDTAVYYCAVDTWYFLFQYGYYQEGDYWGQGTQVTVSS | low polyreactivity
QVQLVESGGGLVQAGGSLPLSCAASGSIFTYYAMGSYRQAPGKEREFVAAISRRGGSTYYADSVKGRFTISRDNAKNTVYLQMNSLKPEDTAVYYCNARDTGSSLYYWGQGTQVTVSS | high polyreactivity
QVQLVESGGGLVQAGGSLRLSCAASGSIFSLNAMGWYRQAPGKERELVAASGGGSTYYADSVKGRFTISRDNAKNTVYLQMNSLKPEDSAVYYCAARVLTDELDYWGQGTQVTVSS | low polyreactivity

Sequence | polyreactivity (PSR sort gate)
QDQLVESRGGLVQAGGSLRLSCAASGGTFRVYAMGWFIQAPGKERELVAAISSGGSTNYADSVNGRFTISRDNSKNTVYLQMNSLKPEDTAVYYCAADRVGWSVYRGDYWGHGTQVTVSS | high polyreactivity
QVHLVESGGGLVQAGGSLRLSCAASGSIFIVYTMGWYRQAPGKERELVAAISSGGITDYADSVKGRFTISRDNAKNTVYLQMNSLKPEDTAVYYWGQGTQVTVSS | low polyreactivity
QVQLGDSGGGLVQAGGSLRLSCAASGSIFNKYAMGWYRQAPGKEREFVAPITQGGGRTYYADSVKGRFTISRDNAKNNVYLQMNSLKPEDTAVYYCIYNFNYPYYRYGYWGQGTQVTVSS | high polyreactivity
QVQLVESGGCLVQAGGSLRLSCAASGSTFNYYAMGWYRQAPGKERELVAAISSSGGRTYYADSVKGRFTISRDNAKNTVYLQMNSLKPEDTAVYYCNARTYSYRGYNYWGQGTQVTVSS | high polyreactivity
QVQLQESGGGLVQAGGDLRLSCAASGNIFRDYIMGWNPQAPGKEREFVAGIDRGANTNYADSVKGRFTISRDNAKNTVYLQMNSLKPEDTAVYYCAVHTAIVPDFIYWGQGTQVTVSS | low polyreactivity
QVQLVESGGGLVQAGGSLRLSCAPSGITFRVNAMGWYRQAPGKERELVASISRSGGSTYYADSVKGRFTISRDHAKNNVYLQMKSLKPEDTAVYYCADAQKVLFYGRWFDYWGQCTQVTVSS | low polyreactivity
QVQLVESGGGLVQAGGSLRLSCAASGLTLSYYAMGWYRQAPGKERELVAAISSGGSTYYADSVKGRFTISRDNAKNTVYLQMNSLKPEDTAVYYCAAQWWRLYWEYYYWGQGTQVTVSS | low polyreactivity
QVQLVESGGGLVQAGGSLRLSCAASGITFQHYSMGWYRQAPGKERELVAAISSSGGRTYYADSVKGRFTISRDNAKNTVYLQMNSLKPEDTAVYYCNGVDRYNRFDSWGQGTQVTVSS | high polyreactivity
QVQLVESGGGLVQAGGSLRLSCAASGRILGRYAMGWYRQAPGKERELVATITSGDDTNYADSVKGRFTISRDNAKNTVYLQMNSLKPEDTAVGYWGQGTQVTVSS | low polyreactivity
QVQLVESGGGLVQAGGSLRLSCAASGSTFVDYAMGWYRQAPGKERELVAAISSSGSTNYADSVKGRFTISRDNAKNTVYLQMNSLKPEDTAVYYCNADGNPDFYYSFYDEYDYWGQGTQVTVSS | low polyreactivity
QVQLVESGGGLVQAGGSLLLSCAASGIIFRYNTMGLYRQAPGKERELVAAIRTTGGSTNYADSVKGRFTISRDNAKNTVYLQMNSLKPEDTAVYYCNKGVSSRAFDYWGQGTQVTVSS | low polyreactivity
QVQLVESGGGLVQAGGSLRLSCAASGSIFTENAMGWYRQAPGKERELVAAIRWDDGNTYYADSVKGRFTISRDNAKNTVYLQMNSLKTEDTAVYYCNADKWSSTDDWLYDYWGQGTQVTVSS | low polyreactivity
QVQLVESGGGLVQAGGSLRLSCAASGRIFSSNAMGWYRQAPGKEREFVAAISWRTGSTYYADSVKGRFTISRDNAKNTVYLQMNSLKPEDTAVYYCAAVYWTFWGTIATRYDYWGQGTQVTVSS | high polyreactivity
QVQLVESGGGLVQAGGSLRLSCAASGSIFAYAMGWYRQAPGKQRELVAGISSSGGRTYYADSVKGRFTISRDNAKNSVYLQMNSLKPEDTAVYYCAARAQSPPYGYWGQGTQVTVSS | high polyreactivity
QVQLVESGGGLVHAGGSLRLSCAASGRTFTRNAMGWYRQAPGKERELVAAISISGGRTYYADSVKGRFTISRDNAKNTVSLQMNSLKPEDTAVYYCANVTTSKYDYDYWGQGTQVTVSS | high polyreactivity
QVQLVESGGGLVQAGGSLRVSCAASGSTFWSNVMGWYRQAPGKERELDSAISYGGVTTSYADSVKGRFTISRDNAKNTVYLQMNSLKPEDTAVYYCATDYVGYYFYESDYWGQGTQVTVSS | low polyreactivity
QVQLVESGGGLVQAGGSLRLSCAASGNTFGGYAMGWYRQAPGKERELVAAIRYSGTSTYYADSVKGRFTISRDNAKNTVYLQMNSLKPEDTAVYYCAATYTRVPNRFYYWGQGTQVTVSS | high polyreactivity
QVQLVESGGGLVQAGGSLRLSCAASGRTSSVYARGWSRQAPGKEREWVAAITSSGGSTYYADSVKGRFTISRDNAKNTVYLQMNSLNPEDTAVYYCAAETYPVWGVAFYYWGQGTQVTVSS | high polyreactivity
QVQLVESGGGLVQAGGSLRLSCAASGLIFSRYAMGWYRQAPGKERELVAAISSSGGTTYYADSVKGRFTISRDNAKNTVYLQMNSLKPEDTAVYYCAAGVAWRFYSWGQGTQVTVSS | high polyreactivity
QVQLVETGGGLVQEGGSLRISCAASGSLFDVYAMGWYRQAPGKERELVAAISSSGSTYYADSVKGRFTISRDNAKNTVYLQMNSLKTEDTAVYYCAADQADDDDYYYWGQGTQVTVSS | low polyreactivity
QVQLVESGGGLVQAGGSLRLSCAASGFIFGRNAMGWYRQAPGKERELVAGISSRGGRTYYADSVKGRFTISRDNAKNTVYLQMNSLKPEDTAVYYCAAAGLTDYVRYDYWGQGTQVTVSS | high polyreactivity
